Reference: the supplement of paper PMC7877785
± gives the uncertainty stated by the source.

Assay: self-splicing fitness, log relative to wild type (ln ratio); higher = more splicing; Tetrahymena group I intron in knt gene, E. coli kanamycin selection, DiMSum; sequences stand for … in CUCUCU…GGAGGGAAAAGUUAUCAGGCAUGCACCUGGUAGCUAGUCUUUAAACCAAUAGAUUGCAUCGGUUUAAAAGGCAAGACCGUCAAAUUGCGGGAAAGGGGUCAACAGCCGUUCAGUACCAAGUCUCAGGGGAAACUUUGAGAUGGCCUUGCAAAGGGUAUGGUAAUAAGCUGACGGACAUGGUCCUAACCACGCAGCCAAGUCCUAAGUCAACAGAUCUUCUGUUGAUAUGGAUGCAGUUCACAGACUAAAUGUCGGUCGGGGAAGAUGUAUUCUUCUCAUAAGAUAUAGUCGGACCUCUCCUUAAUGGGAGCUAGCGGAUGAAGUGAUGCAACACUGGAGCCGCUGGGAACUAAUUUGUAUGCGAAAGUAUAUUGAUUAGUUUUGGAGUACUCGUGGUCG
Procedure, shortened: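 Fitness was computed with DiMSum as the error-weighted combination of replicate fold changes, kanamycin versus none, each normalised to wild type. The library randomised all eight intron nucleotides of the P1ex region, with the intron placed in the knt kanamycin-resistance gene on pET-22b(+) in E. coli BL21(DE3). Six replicate transformations were grown overnight at 37°C or 30°C on LB agar with or without 25 μg/mL kanamycin, plus 100 μg/mL carbenicillin, 50 μM IPTG and 0.2% rhamnose. Pooled colonies were amplicon-sequenced on an Illumina HiSeq 2500.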

Row | Sequence | self-splicing fitness (ln) (30 °C) | self-splicing fitness (ln) (37 °C)
1 | AUUCAGCAAUAUUACGGUCG | -0.857 ± 0.085 | -0.679 ± 0.14
2 | AAAGAGCAAUAUUACGGGUA | -2.81 ± 0.26 | -1.88 ± 0.27
3 | CCUGAGCAAUAUUACGGUCC | -1.71 ± 0.36 | -1.22 ± 0.43
4 | CAUCAGCAAUAUUACGUGUC | -3.93 ± 0.19 | -1.08 ± 0.12
5 | ACCCAGCAAUAUUACGACCA | -0.474 ± 0.1 | -0.703 ± 0.14
6 | CGAUAGCAAUAUUACGCUCA | -0.478 ± 0.11 | 0.119 ± 0.15
7 | UGGGAGCAAUAUUACGUUAC | -2.73 ± 0.47 | –
8 | GAAAAGCAAUAUUACGCAUA | -1.72 ± 0.093 | -0.672 ± 0.083
9 | CUUGAGCAAUAUUACGUAAA | – | -0.936 ± 0.2
10 | UCUAAGCAAUAUUACGACCU | -3.7 ± 0.35 | -1.92 ± 0.24
11 | UUCCAGCAAUAUUACGAAUG | -3.59 ± 0.19 | -1.75 ± 0.15
12 | AGCGAGCAAUAUUACGCGAA | -2.39 ± 0.36 | -1.21 ± 0.32
13 | CAUCAGCAAUAUUACGGUAC | -2.95 ± 0.17 | -2.71 ± 0.18
14 | UAACAGCAAUAUUACGGAGC | – | -2.58 ± 0.29
15 | AAAAAGCAAUAUUACGGACG | -0.378 ± 0.064 | 0.25 ± 0.084
16 | UCGGAGCAAUAUUACGCUUG | -3.64 ± 0.27 | -2.83 ± 0.35
17 | GGACAGCAAUAUUACGAUUC | -0.338 ± 0.063 | 0.353 ± 0.078
18 | UUUGAGCAAUAUUACGAGAA | – | -2.17 ± 0.46
19 | UAUAAGCAAUAUUACGGGGU | -2.93 ± 0.24 | -2.66 ± 0.23
20 | UUAUAGCAAUAUUACGUGCU | -2.75 ± 0.16 | -1.91 ± 0.14
21 | GAAGAGCAAUAUUACGCCUG | -0.984 ± 0.19 | -0.756 ± 0.35
22 | UUUAAGCAAUAUUACGUUAU | -3.18 ± 0.2 | -2.16 ± 0.22
23 | UCGUAGCAAUAUUACGAGCA | -0.579 ± 0.3 | -1.13 ± 0.24
24 | UAAAAGCAAUAUUACGCAUC | -2.95 ± 0.15 | -2.36 ± 0.21
25 | CAAGAGCAAUAUUACGGACG | -0.541 ± 0.074 | 0.217 ± 0.093
26 | CCACAGCAAUAUUACGUAAA | -3.84 ± 0.17 | -2.06 ± 0.18
27 | CGUAAGCAAUAUUACGGGCU | – | -1.92 ± 0.21

Row | Sequence | self-splicing fitness (ln) (30 °C) | self-splicing fitness (ln) (37 °C)
28 | AUCCAGCAAUAUUACGUUGA | -1.6 ± 0.077 | -0.866 ± 0.087
29 | ACGAAGCAAUAUUACGUAGA | -3.72 ± 0.24 | -2.89 ± 0.27
30 | UUGCAGCAAUAUUACGCGCC | -2.28 ± 0.44 | –
31 | GGUAAGCAAUAUUACGUAGA | -1.56 ± 0.13 | -1.54 ± 0.21
32 | UCGUAGCAAUAUUACGGGUG | -1.66 ± 0.11 | -2.66 ± 0.14
33 | UACCAGCAAUAUUACGGAAG | -3.5 ± 0.24 | -1.57 ± 0.16
34 | CUUCAGCAAUAUUACGACGC | -0.697 ± 0.26 | 0.21 ± 0.28
35 | ACCCAGCAAUAUUACGAGAA | -1.61 ± 0.23 | -1.24 ± 0.21
36 | CAAAAGCAAUAUUACGCAUU | -3.45 ± 0.18 | -3.29 ± 0.23
37 | CCUCAGCAAUAUUACGUGGA | -3.84 ± 0.18 | -3.02 ± 0.2
38 | UGGCAGCAAUAUUACGUGUG | -0.896 ± 0.043 | -0.192 ± 0.057
39 | UUAUAGCAAUAUUACGUCUU | -3.35 ± 0.3 | -0.948 ± 0.17
40 | GCCUAGCAAUAUUACGUGAC | -1.12 ± 0.17 | 0.101 ± 0.17
41 | UAGUAGCAAUAUUACGCGUA | -1.53 ± 0.25 | -1.94 ± 0.17
42 | UGCGAGCAAUAUUACGAAGA | -3.24 ± 0.37 | -1.97 ± 0.28
43 | GAAUAGCAAUAUUACGCUGA | -2.56 ± 0.31 | -0.623 ± 0.22
44 | UCCGAGCAAUAUUACGCCCU | -2.74 ± 0.31 | –
45 | GGUAAGCAAUAUUACGCUGU | -3.25 ± 0.29 | -1.65 ± 0.23
46 | CAUUAGCAAUAUUACGUCUC | -3.28 ± 0.27 | -1.76 ± 0.23
47 | UAUAAGCAAUAUUACGCAGG | -2.31 ± 0.13 | -0.616 ± 0.11
48 | CCUAAGCAAUAUUACGAUUC | -3.13 ± 0.29 | -2.6 ± 0.41
49 | GCUAAGCAAUAUUACGUAUU | -1.16 ± 0.079 | -1.02 ± 0.11
50 | GCGCAGCAAUAUUACGUUCU | -0.657 ± 0.093 | 0.0134 ± 0.11
51 | GCCAAGCAAUAUUACGGACG | -1.6 ± 0.14 | 0.0859 ± 0.18
52 | ACUAAGCAAUAUUACGACGU | -0.322 ± 0.066 | 0.158 ± 0.082
53 | ACGAAGCAAUAUUACGCUGA | -0.881 ± 0.11 | -0.99 ± 0.1
54 | UCUCAGCAAUAUUACGGGUU | -2.06 ± 0.081 | -1.27 ± 0.1

Row | Sequence | self-splicing fitness (ln) (30 °C) | self-splicing fitness (ln) (37 °C)
55 | UAGCAGCAAUAUUACGCCUA | -0.551 ± 0.13 | 0.446 ± 0.15
56 | UGAUAGCAAUAUUACGUACG | -0.418 ± 0.074 | 0.13 ± 0.1
57 | ACUAAGCAAUAUUACGGUCA | -1.57 ± 0.077 | -1.35 ± 0.094
58 | AGGAAGCAAUAUUACGUGGG | -4.36 ± 0.31 | -3.38 ± 0.23
59 | UCCAAGCAAUAUUACGAUUU | -3.72 ± 0.26 | -2.71 ± 0.28
60 | UUCUAGCAAUAUUACGAGAA | -2.54 ± 0.29 | -2.11 ± 0.29
61 | GGCGAGCAAUAUUACGAUGG | -2.32 ± 0.24 | –
62 | GUCUAGCAAUAUUACGGCCC | -2.32 ± 0.39 | 0.974 ± 0.31
63 | UACGAGCAAUAUUACGUGAC | -4.06 ± 0.33 | -1.76 ± 0.27
64 | GUCGAGCAAUAUUACGGAGA | -2.84 ± 0.23 | -2.47 ± 0.31
65 | AAGUAGCAAUAUUACGCCUC | -1.63 ± 0.27 | –
66 | UUACAGCAAUAUUACGACUG | -1.26 ± 0.08 | -1.81 ± 0.12
67 | CAGAAGCAAUAUUACGCCAG | -0.586 ± 0.072 | -0.605 ± 0.12
68 | GCUUAGCAAUAUUACGUGAG | -1.45 ± 0.07 | -1.2 ± 0.071
69 | AGGAAGCAAUAUUACGCCUG | -1.15 ± 0.14 | 0.257 ± 0.17
70 | AUGCAGCAAUAUUACGGUUC | -2.28 ± 0.088 | -1.83 ± 0.13
71 | GUGUAGCAAUAUUACGACAU | -2.608 ± 0.022 | -1.52 ± 0.037
72 | GGGCAGCAAUAUUACGAUGG | -3.22 ± 0.35 | –
73 | GUCGAGCAAUAUUACGGUGG | -3.54 ± 0.27 | -2.24 ± 0.22
74 | CACCAGCAAUAUUACGACCA | -1.94 ± 0.13 | -0.0102 ± 0.16
75 | AGCGAGCAAUAUUACGAACC | -2.18 ± 0.14 | -0.856 ± 0.15
76 | CAAGAGCAAUAUUACGUUGA | -3.98 ± 0.36 | -2.94 ± 0.21
77 | GCCUAGCAAUAUUACGAGCG | -1.38 ± 0.1 | 0.0723 ± 0.13
78 | CUCGAGCAAUAUUACGGUAA | -3.49 ± 0.25 | -1.88 ± 0.24
79 | UUCGAGCAAUAUUACGCUGC | -3.44 ± 0.44 | –
